# Experiment: yeast display, Sf9 membrane polyspecificity reagent, FACS + sequencing; frameworks hold sequencing errors
# Outline: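 Galactose induction of a Saccharomyces cerevisiae BJ5465 synthetic nanobody display library ran 36–48 hours. The cells were then stained for 1 hour at 4 °C with 10% biotinylated, detergent-solubilized Sf9 membrane reagent, pulled down on streptavidin microbeads and FACS-sorted into low and high (top ~1%) gates on expression and reagent-binding fluorescence. Labels for polyreactivity follow the gate of origin.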
row,Sequence,polyreactivity (PSR sort gate)
1,QVQLVESGGGLVQAGGSLRLSCAASGRTFYGYAMGWYRQAPGKERELVAGISGRGTRTYYADSVKGRFTISRDNAKNTVYLQMNSLKPEDTAVYYCNAVSIGYYSQSLGLDYWGQGTQVTVSS,high polyreactivity
2,QVQLVESGGGLVQAGGSLRLSCAASGRTFRFYAMGWYRQAPGKERELVAAISASGGGTYYADSVKGRFTISRDNAKHTVYLQMNCLKPEDTAVYYCATRRSYKYYWGQGTQVTVSS,high polyreactivity
3,QVQLVESGGGLVQAGGSLRLSCAASGSTLVFSAMGWYRQAPGKERELVAAITRSGGSTYYADSVKGRFTITRDNAKNTVYLQMNSLKPEDTAVYYCAADERYIYERDSWGQGTQVSVSS,low polyreactivity
4,QDQHVESGGGLVQAGGSLRLSCAASGFTFSDYALGWYRQAPGKERELVAAISTRGSSTYYADSVKGRFTISRDNAKNTVYLHLNSLKQDYTAVSYCNAVGSYSGYYYWGQGTHVTVSS,high polyreactivity
5,QVQLVESVGGLVQAGGSLRLSCAASGFNFPGYAMGWYRPAPGKERELVAAITGSGGRTYYADSVKGRFTISRDNAKNTVYLQMISLKPEDTAVYYCLARSYYNWYDYWGKGTQVTVSS,high polyreactivity
6,QVQLVESGGGLVQAGGSLRLSCAASGSIFRSYAMGWYRQAPGKERELVATIDRSGGSTYYADSVKGRFTISRDNAKNTVYLQMNSLKPEDTAVYYCNKTPHFPRPGFNYWGQGTQVTVSS,low polyreactivity
7,QVQLVESGGGLVQAGGSLRLSCAASGSTFYYNAMGWYRQAPGKERELVAAITFTGGSTYADSVKGRFSISRDNAKNTVYLQMNSLKPEDTAVYYCAATIQGHDYLGTGYDYWGQGTQVTVSS,low polyreactivity
8,QVQLVESGGGLVQAGGSLRLRCAASGSIFQPYAMGWYRQAPGKERELVAAITNGGSTYYADSVKGRFTISRDNATNTVYLQMNSLKPEDTAVYYCAADVQSSHEYDYWGQGTQVTVSS,low polyreactivity
9,QVQLVESGGGLVQAGGSLRLSCAASGSIFQYNAMGWYRQAPGKEREFVADISYSGGTTDYADSVKGRFTISRDNAKNTVYLQMNRLKPEDTAVYYCNADLSSGYPYSYYSATEYDYWGQGSQVTVSS,low polyreactivity
10,QVQLVESGGGLFQAGGSLRLSCAASGRTFSRYVMGWYRQAPGKERELVAAISRTGGRKYYADSVKGRFTITRDNAKNTVYLQMNSLKPEDTAVYYCNAGTVLISTYDYWGQGTQVTVSS,high polyreactivity
11,QVQLVESGGGLVQAGGSLRLSCAASGSIFTPYAMGWYRQAPGKERELVAAISYSGGSTYYADSVKGRFTISRDNAKNTVYLQMNSLKPEDTAVYYCATDGYVYTPFDDDEDYWGQGTQVTVSS,low polyreactivity
12,QVQLVESGGGLVQAGGSLRLSCAASGSTFGYNDMGWYRQAPGKERELVAAIDTGVSTNYADSVKGRFTISRDNAKNTVYLQMNSLKPEDTAVYYCAKSGSAYWHSGWSVGFDYWGQGTQVTVSS,low polyreactivity
13,QVQLVESGGGLVQAGGSLRLSCAASGFTFTAYARGWYRQAPGKERELVAAINWSGSRTSYADSVKGRFTISRDNAKNTVYLQMNSLKPEDTAVYYCNPATSKSSYRHYDYWGQGTQVTVSS,high polyreactivity
14,QVQRVESGGGLVQAGVSLRLSCAASGITFVPYAMGWYRQAPGKERELVAAISSSGGSTYYADSVKGRFTISRDNAKNTVYLQMNSLKPEDTAVYFCNVPTHSYIGMDYWGQGTQVTVSS,low polyreactivity
15,QVQLVESGGGLVQAGGSLRLSCAASGSIFYVYAMGRYRQAPGKERELVASITRRRTNYADSVKVRFTISRDNAKNTVYLQMNSLKPEDTAVYYCAATTYVRQYATYDYWGQGTQVTVSS,high polyreactivity
16,QVQLVESGGGLVQAGGSLRLSCAASGYTFGYNVMGWYRQAPGKERELVAVISSGGTTYYADSVKGRFTISRDNAKNTVYLQMNSLKPEDTAVYYCNKRSAYKYRTHYGYYYWGQGTQVTVSS,high polyreactivity
17,QVQLVESGGGLVQAGGSLRLSCAASGRTFPSNVMGWYRQAPGKEREFVAAITTRGGNTRYADSVKGRFTISRDNAKNTVYLQMNSLKPEDTAVYYCAAKVKPGYDYWGQGTQVTVSS,low polyreactivity
18,QVKLVESGGGLVQAGGSLRLTCDASGRIFSSYAMGWYRQAPGKERELVAAIRSSGDRTYYADSVKGRFTISRDNAKNTVYLQMNSLKPEDTAVYYCAARAVLKSWAYYYWGQGTQVTVSS,high polyreactivity
19,QVQLVESGGGLVQAGGSLSLSCAASGNIFTIYAMGWYRKAPGKERELVARITWGGGNTYYADSVKGRFTISRDNAKNTVYLQMNSLKPEDSAVYYCNAVGPYDYRYGKYDYWGLGTQVTVSS,low polyreactivity
20,QVQLVESGGGLVQAGGSLRLSCAASGRIFYRNGMGWYRQAPGKERELVAAISYSGGRTYYADSVKGRFTISRYNAKNTVYLQMNSLKPEDTAVYYCAAQWFEDFLYPWLEYDYWGQGTQVTVSS,high polyreactivity

row,Sequence,polyreactivity (PSR sort gate)
1,QVQLVESGGGLVQAGGSLRLSCAASGRTFTYYAMGWYRQAPGKERELVAAITGRGGRTYYADSVKGRFTISRDIAKNTVYLQMNSLKREDTAVYYCATRDPYYSSEYTYGYWGQGTQVTVSS,high polyreactivity
2,QVQLVESGGGLVQAGGSLRLSCAASGRIFFANAMGWYRQAPGKERELVATITSGESTNYADSVKGRFTISRDNAKNTVYFEMNSLKPEDTAVYYCAADYYWYSPGAYSYAGYDYWGQGTQVTVSS,low polyreactivity
3,QVQLVESGGGLVQGGGSLRLSCAASGRILYSYAMGWYRQAPGKERELVAAISWRGGPTYYADSVKGRFTISRDNAKNTVYLQLNSLKPEDTAVSNCAPEFYDHPWMYDYWGQGTQVTVSS,low polyreactivity
4,QVQLVESGGGLVQAGGSLRLSCAASGSTFAYNDMGWYRQAPGKERDLVADIRYGGNTNYADSVKGRFTISRDNAKNTDYFQMNSLKPVDTSVYYCATDGYRSDVYHPDYRYDYWGQCTQVTVSS,low polyreactivity
5,QVQLVESGGGLVQAGGSLRLSCAASGRTLAPYAMGWYRQAPGKERELVAISTIGGSTYYADSVKGRFTISRDNAKNTVYLQMNSLKPEDTAVYYCAADGNSTGVYLDGGEGFAYDYWGQGTQVTVSS,low polyreactivity
6,QVQLVESGGGLVQAGGSLRLSCAASGSTFPSYAMGWYRQAHGKERELVAAINSGGGTNYADSVKGRFTISRDNAKNTVYLQMHSLKPEDTAVYYCDKSRYDYTKTEGGYWGQATQVTVSS,low polyreactivity
7,QVQRVESGGGLVQAGGSLRLSCAGCGRIFHYYAMGWYRQAPGKEMELVAAITSSGGSTYYADSVKGRFTISRDHPKNTVYLQMNSLKPEDTAVYYCAAGLIVGRFLRYDYWGQGTQVTVSS,high polyreactivity
8,QVQLVESGGGLVQAGGSLRLSCAASGSTFPRNAMGWYRQAPGKDRELVAAISGSGGTTYYADSVKGRFTISRDNAKNTVYLQMNSLKPEDTAVYYCAARTSWAYPGGNYWGHGTQVTVSS,low polyreactivity
9,QVQLVESGGGLVQAGGSLRLSCAASGNIFVPNAMGWYRQAPGKERGLVAAIRRGGSTNYADSVKGRFTISRDNAKNNVYLQMNSLKPEDTGVYYCARSRVSFTDLEGYYWGQGTQVTVSS,low polyreactivity
10,QVQLVESGGGLVQAGASLRLSCAASGGIFAYYAMGWYRQAPGKERELVAAINRSGGSTRYADSVKGRFTNSRDNAKNTVFLQMNSLKPEETAVYYCATKRSTGYYWGQGTQVTVSS,high polyreactivity
11,QVQLVESGGGLVQAGGSLRLSCAASGFILTSYAMGWNRQAPGKERELVAAISSRGGRTYYADSVKGRFTISRDNAKNTVYLQMNSLKPEDTAVYYCNAVVYVVGDFDYWGQGTQVTVSS,high polyreactivity
12,QVQLGESGGGLVQAGGSLRLICAASGLTFSYNDMGWYRQAPGKERELVAGITSNGGSTYYADSVKGRFTITRDNAKNTVYLQMNSLNPEDTAVYYCAAEQYVGVKPFLSDSWGQGNQVTVSS,low polyreactivity
13,QVQLVESGGGLVQAGGSLRLSCAASGRTSASNAMGWYREAPGKERELVATIDGIDGNTYYADSVKGRFTISRDNAKNTVYLQMNSLKPEDTAVYYCNVESWRLQAIYKYSYWGQGTQVTVSS,low polyreactivity
14,QVQLVESGGALVQAGGSLRLSCAASGSIFVYNAMGWYIPAPGKERELVAAITSDGSTNYADSVKGRFTISRDNATNTVYLQMNSLKPEDNAVYYCNAGNDQYPSFEYDYWGQGTKVTVSS,low polyreactivity
15,QVQLVESGGGLVQAGGSLRLSCAASGYIFFGNAMGWYRQAPGKERELVAAIRWRGTSTYYADSVKGRFTISRDNAKNTVYLQMNSLKPEDTAVYYCAADVVRYNFYGTFLYDYDYWGQGTQVTVSS,low polyreactivity
16,QVQLVESGGGLVQAGGSLRLSCAASGSTFIEYAMGWYRQAPGTERELVAGITTSSGRTSYADSVKGRFSISRDNAKNTVYLQMNSLKPEDTAVYYCAADIYYYSPYDSFWYSEVDYWGQGTQVTVSS,low polyreactivity
17,QVQLVESGGGLVQAGGILRLSCAASGRIFTSNPMGWYRQAPGKEREFVAAISGSGDGTYYADSVKGRFTISRDTAKNTVYLQMNSLKPEDTAVYYCAARRRGTYPYPMGYWGQGTQVTVSS,high polyreactivity
18,QVQLVESGGGLVQAGGSLRLSCAASGLTFEWYTMGWYRQAPGKERALVAVITVSGSSTYYADSVKGRFSISRDNAKNTVYFQMNSLKPEDTAVYYCNADWSFYSYTLYDYWGQGTQVTVSS,low polyreactivity
19,QVQLVESGGGLVQAGGSLRISCAASGRTFLVYTMGWYRQAPGKERELVAAISWSDGSTYYADSVKGRFTISRDNAKNTVYLQMNSLKPEDTAVYYCAARRTGYLYRYGYWGQGTQVTVSS,low polyreactivity
20,QVQLVESGGGLVQAGGSLRLSCAASGSIFPPNAMGWYRQAPGKEREFVATITGRGGRTYYADSVKGRFTISRDNAKNTVYLQMNSLKPEDTAVYYCAARYTTSSRAKIEYDYWGQGTQVTVSS,high polyreactivity

# Source: the nanobody polyreactivity screen of Harvey et al. (2022)
